Laboratory results from PMC9490039 (iScience, 2022).

Biological target: Kv7.2 wt (wild-type Kv7.2 channel subunit), tagged with EGFP or with mKate2 (human, UniProt O43526-1 1-872)
Assay: FRET or BRET

increase of EGFP intensity after photobleaching mKate2 (FRET): 12.1%
B1: Kv7.2mut-EGFP (Kv7.2 with in-frame deletion of histidine 260) (natural protein)
chain: MVQKSRNGGVYPGPSGEKKLKVGFVGLDPGAPDSTRDGALLIAGSEAPKRGSILSKPRAGGAGAGKPPKRNAFYRKLQNFLYNVLERPRGWAFIYHAYVFLLVFSCLVLSVFSTIKEYEKSSEGALYILEIVTIVVFGVEYFVRIWAAGCCCRYRGWRGRLKFARKPFCVIDIMVLIASIAVLAAGSQGNVFATSALRSLRFLQILRMIRMDRRGGTWKLLGSVVYAHSKELVTAWYIGFLCLILASFLVYLAEKGENDFDTYADALWWGLITLTTIGYGDKYPQTWNGRLLAATFTLIGVSFFALPAGILGSGFALKVQEQHRQKHFEKRRNPAAGLIQSAWRFYATNLSRTDLHSTWQYYERTVTVPMYSSQTQTYGASRLIPPLNQLELLRNLKSKSGLAFRKDPPPEPSPSKGSPCRGPLCGCCPGRSSQKVSLKDRVFSSPRGVAAKGKGSPQAQTVRRSPSADQSLEDSPSKVPKSWSFGDRSRARQAFRIKGAASRQNSEEASLPGEDIVDDKSCPCEFVTEDLTPGLKVSIRAVCVMRFLVSKRKFKESLRPYDVMDVIEQYSAGHLDMLSRIKSLQSRVDQIVGRGPAITDKDRTKGPAEAELPEDPSMMGRLGKVEKQVLSMEKKLDFLVNIYMQRMGIPPTETEAYFGAKEPEPAPPYHSPEDSREHVDRHGCIVKIVRSSSSTGQKNFSAPPAAPPVQCPPSTSWQPQSHPRQGHGTSPVGDHGSLVRIPPPPAHERSLSAYGGGNRASMEFLRQEDTPGCRPPEGNLRDSDTSISIPSVDHEELERSFSGFSISQSKENLDALNSCYAAVAPCAKVRPYIAEGESDTDSDLCTPCGPPPRSATGEGPFGDVGWAGPRK
